Values of other authors as cited in article PMC12368481, “Discovery of a Phenylalanine‐Derived Natural Compound as a Potential Dual Inhibitor of MDM2 and MDMX” (Chemmedchem, 2025).
Where two headings read alike, the source gives them in different places.

Key:
[1] = biological target: p53 peptide (Homo sapiens) (UniProt P04637)
[2] = biological target: p53 peptide (Homo sapiens) (UniProt P04637); remark: listed apart in the source

Sequence of p53 peptide (Homo sapiens) (P04637 whole entry): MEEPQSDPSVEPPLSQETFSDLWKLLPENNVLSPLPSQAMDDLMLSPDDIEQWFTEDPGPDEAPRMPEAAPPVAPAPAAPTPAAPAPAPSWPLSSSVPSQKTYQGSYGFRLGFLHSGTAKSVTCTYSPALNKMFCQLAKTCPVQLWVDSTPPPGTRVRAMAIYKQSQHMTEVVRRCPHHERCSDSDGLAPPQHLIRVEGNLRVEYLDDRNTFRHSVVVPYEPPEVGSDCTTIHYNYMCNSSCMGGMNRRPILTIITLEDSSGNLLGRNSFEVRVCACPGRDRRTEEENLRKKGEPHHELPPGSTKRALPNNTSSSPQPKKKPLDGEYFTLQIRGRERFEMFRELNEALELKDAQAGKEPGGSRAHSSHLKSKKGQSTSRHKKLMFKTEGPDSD
Sequence of MDMX (O15151 whole entry): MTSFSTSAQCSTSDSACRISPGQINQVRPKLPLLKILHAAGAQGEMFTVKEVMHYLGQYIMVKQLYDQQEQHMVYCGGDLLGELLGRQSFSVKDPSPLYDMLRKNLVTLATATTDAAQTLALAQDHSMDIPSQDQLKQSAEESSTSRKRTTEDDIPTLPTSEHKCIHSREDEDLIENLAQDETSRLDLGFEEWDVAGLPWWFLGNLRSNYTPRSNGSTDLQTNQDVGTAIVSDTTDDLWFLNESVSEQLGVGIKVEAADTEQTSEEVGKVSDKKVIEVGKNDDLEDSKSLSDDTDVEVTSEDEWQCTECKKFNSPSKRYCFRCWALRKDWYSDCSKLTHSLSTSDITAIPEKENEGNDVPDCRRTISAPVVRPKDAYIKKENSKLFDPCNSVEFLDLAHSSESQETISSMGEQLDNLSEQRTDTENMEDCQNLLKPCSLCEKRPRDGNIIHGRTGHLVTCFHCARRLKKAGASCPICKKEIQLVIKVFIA
Sequence of MDM2 (Q00987 whole entry): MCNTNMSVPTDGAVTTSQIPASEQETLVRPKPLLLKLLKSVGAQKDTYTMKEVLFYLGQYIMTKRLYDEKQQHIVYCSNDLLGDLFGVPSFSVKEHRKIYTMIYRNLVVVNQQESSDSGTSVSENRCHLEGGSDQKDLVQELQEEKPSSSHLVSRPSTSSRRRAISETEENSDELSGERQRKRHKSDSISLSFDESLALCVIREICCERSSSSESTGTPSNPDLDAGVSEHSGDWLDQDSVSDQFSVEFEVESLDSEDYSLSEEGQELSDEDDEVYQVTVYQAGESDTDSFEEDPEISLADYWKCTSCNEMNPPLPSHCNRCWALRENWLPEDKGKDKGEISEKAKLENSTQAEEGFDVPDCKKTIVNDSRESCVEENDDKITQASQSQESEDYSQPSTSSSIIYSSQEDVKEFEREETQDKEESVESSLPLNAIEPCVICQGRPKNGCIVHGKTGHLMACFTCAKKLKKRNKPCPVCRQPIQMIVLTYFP

Substance	Kd [1]	Kd [2]
MDMX (from UniProt O15151)	340 nM	
MDM2 (from UniProt Q00987)		1110 nM
